Laboratory results from patent US20150344570A1 (published 2015).

T1: FcγRIIa R (human, UniProt P12318 34-217)
T1 construct: extracellular domain; Soluble His-tagged extracellular domain expressed in FreeStyle293 cells; analyte in Biacore; also called FcgRIIa R; FcgRIIaR; not shown: His tag attached to the C terminus
T1 sequence (looked up): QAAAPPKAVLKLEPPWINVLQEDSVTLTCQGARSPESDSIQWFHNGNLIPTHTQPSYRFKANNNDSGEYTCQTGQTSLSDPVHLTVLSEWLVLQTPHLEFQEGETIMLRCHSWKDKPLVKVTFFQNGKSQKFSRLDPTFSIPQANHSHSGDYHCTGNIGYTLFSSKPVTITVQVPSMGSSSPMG

T2: FcγRIIb (human, UniProt P31994 43-217)
T2 construct: extracellular domain; Soluble His-tagged extracellular domain expressed in FreeStyle293 cells; analyte in Biacore; also called FcgRIIb; 2b; not shown: His tag attached to the C terminus
T2 sequence (looked up): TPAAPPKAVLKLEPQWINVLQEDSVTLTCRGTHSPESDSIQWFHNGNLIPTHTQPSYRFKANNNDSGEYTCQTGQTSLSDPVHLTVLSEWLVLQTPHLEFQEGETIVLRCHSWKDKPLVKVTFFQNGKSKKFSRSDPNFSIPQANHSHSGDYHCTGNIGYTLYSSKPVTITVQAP


Tests used:
[1] = target: T1, FcγRIIa R; test: SPR (Biacore), antibody captured via antigen peptide, FcγR as analyte
Method: (§1) The heterodimerized antibodies He Abs in which one of the H chains was introduced with an alteration were assayed for their binding activities to each activating FcγR and inhibitory FcγR according to the method described in Example 4. […] The activating FcγRs in FIGS. 26, 27, 28, and 29 are FcγRIa, FcγRIIa (R), FcγRIIa (H), and FcγRIIIa, respectively.
(§2) Analysis of interaction between objective antibody and the FcγR was carried out using Biacore T100 (GE Healthcare). HBS-EP+ (GE Healthcare) was used as the running buffer, and the measurement temperature was set to 25° C. Chips produced by immobilizing the antigen peptide by the amine coupling method to a Series S Sencor Chip CM5 (GE Healthcare), or alternatively, chips produced by allowing preliminarily biotinylated antigen peptides to interact with and immobilize onto a Series S Sensor Chip SA (certified) (GE Healthcare) were used. Antibodies of interest were captured onto an antigen peptide-immobilized chip, and allowed to interact to each FcγR diluted with running buffer. To regenerate and repeatedly use the chip, the antibodies captured on the chip were washed off by reacting 10 mM glycine-HCl, pH 1.5.

[2] = target: T2, FcγRIIb; test: as above
Method: as §1, §2

[3] = target: T1, FcγRIIa R; test: ratio of He/Con_2aR to He/Con_2b (binding to FcγRIIb as reference); SPR

Binder	He/Con_2aR (IIaR binding relative to GpH7-A5/GpH7-B3/GpL16-k0) [1]	He/Con_2b (IIb binding relative to GpH7-A5/GpH7-B3/GpL16-k0) [2]	He_2aR/2b (IIaR/IIb) [3]
GpH7-A5/GpH7-B3 variant N325_16H/GpL16-k0 (antibody, human IgG1, kappa, Heterodimerized anti-glypican-3 IgG1 antibody; alteration only in the GpH7-B3 H chain; position in EU numbering; also called He Ab) heavy 1: not shown heavy 2: not shown light: DIVMTQSPLSLPVTPGEPASISCQASESLVHSNRNTYLHWYLQKPGQSPQLLIYKVSNRFSGVPDRFSGSGSGTDFTLKISRVEAEDVGVYYCSQNTHVPPTFGQGTKVEIERTVAAPSVFIFPPSDEQLKSGTASVVCLLNNFYPREAKVQWKVDNALQSGNSQESVTEQDSKDSTYSLSSTLTLSKADYEKHKVYACEVTHQGLSSPVTKSFNRGEC	89 % of control (control = 100)	70.1 % of control (control = 100)	1.27
GpH7-A5/GpH7-B3 variant P329_04F/GpL16-k0 (antibody, human IgG1, kappa, Heterodimerized anti-glypican-3 IgG1 antibody; alteration only in the GpH7-B3 H chain; position in EU numbering; also called He Ab) heavy 1: not shown heavy 2: not shown light: DIVMTQSPLSLPVTPGEPASISCQASESLVHSNRNTYLHWYLQKPGQSPQLLIYKVSNRFSGVPDRFSGSGSGTDFTLKISRVEAEDVGVYYCSQNTHVPPTFGQGTKVEIERTVAAPSVFIFPPSDEQLKSGTASVVCLLNNFYPREAKVQWKVDNALQSGNSQESVTEQDSKDSTYSLSSTLTLSKADYEKHKVYACEVTHQGLSSPVTKSFNRGEC	44.7 % of control (control = 100)	32.2 % of control (control = 100)	1.39
GpH7-A5/GpH7-B3 variant P329_09D/GpL16-k0 (antibody, human IgG1, kappa, Heterodimerized anti-glypican-3 IgG1 antibody; alteration only in the GpH7-B3 H chain; position in EU numbering; also called He Ab) heavy 1: not shown heavy 2: not shown light: DIVMTQSPLSLPVTPGEPASISCQASESLVHSNRNTYLHWYLQKPGQSPQLLIYKVSNRFSGVPDRFSGSGSGTDFTLKISRVEAEDVGVYYCSQNTHVPPTFGQGTKVEIERTVAAPSVFIFPPSDEQLKSGTASVVCLLNNFYPREAKVQWKVDNALQSGNSQESVTEQDSKDSTYSLSSTLTLSKADYEKHKVYACEVTHQGLSSPVTKSFNRGEC	67.8 % of control (control = 100)	53.5 % of control (control = 100)	1.27
GpH7-A5/GpH7-B3 variant P329_06M/GpL16-k0 (antibody, human IgG1, kappa, Heterodimerized anti-glypican-3 IgG1 antibody; alteration only in the GpH7-B3 H chain; position in EU numbering; also called He Ab) heavy 1: not shown heavy 2: not shown light: DIVMTQSPLSLPVTPGEPASISCQASESLVHSNRNTYLHWYLQKPGQSPQLLIYKVSNRFSGVPDRFSGSGSGTDFTLKISRVEAEDVGVYYCSQNTHVPPTFGQGTKVEIERTVAAPSVFIFPPSDEQLKSGTASVVCLLNNFYPREAKVQWKVDNALQSGNSQESVTEQDSKDSTYSLSSTLTLSKADYEKHKVYACEVTHQGLSSPVTKSFNRGEC	42.7 % of control (control = 100)	29.1 % of control (control = 100)	1.47

Next, values leading:

He/Con_2aR (IIaR binding relative to GpH7-A5/GpH7-B3/GpL16-k0) [1]	He/Con_2b (IIb binding relative to GpH7-A5/GpH7-B3/GpL16-k0) [2]	He_2aR/2b (IIaR/IIb) [3]	Binder
61.5 % of control (control = 100)	41 % of control (control = 100)	1.5	GpH7-A5/GpH7-B3 variant P329_13S/GpL16-k0 (antibody, human IgG1, kappa, Heterodimerized anti-glypican-3 IgG1 antibody; alteration only in the GpH7-B3 H chain; position in EU numbering; also called He Ab) heavy 1: not shown heavy 2: not shown light: DIVMTQSPLSLPVTPGEPASISCQASESLVHSNRNTYLHWYLQKPGQSPQLLIYKVSNRFSGVPDRFSGSGSGTDFTLKISRVEAEDVGVYYCSQNTHVPPTFGQGTKVEIERTVAAPSVFIFPPSDEQLKSGTASVVCLLNNFYPREAKVQWKVDNALQSGNSQESVTEQDSKDSTYSLSSTLTLSKADYEKHKVYACEVTHQGLSSPVTKSFNRGEC
67.9 % of control (control = 100)	45.7 % of control (control = 100)	1.49	GpH7-A5/GpH7-B3 variant P329_15Y/GpL16-k0 (antibody, human IgG1, kappa, Heterodimerized anti-glypican-3 IgG1 antibody; alteration only in the GpH7-B3 H chain; position in EU numbering; also called He Ab) heavy 1: not shown heavy 2: not shown light: DIVMTQSPLSLPVTPGEPASISCQASESLVHSNRNTYLHWYLQKPGQSPQLLIYKVSNRFSGVPDRFSGSGSGTDFTLKISRVEAEDVGVYYCSQNTHVPPTFGQGTKVEIERTVAAPSVFIFPPSDEQLKSGTASVVCLLNNFYPREAKVQWKVDNALQSGNSQESVTEQDSKDSTYSLSSTLTLSKADYEKHKVYACEVTHQGLSSPVTKSFNRGEC
64.8 % of control (control = 100)	52.7 % of control (control = 100)	1.23	GpH7-A5/GpH7-B3 variant P329_10E/GpL16-k0 (antibody, human IgG1, kappa, Heterodimerized anti-glypican-3 IgG1 antibody; alteration only in the GpH7-B3 H chain; position in EU numbering; also called He Ab) heavy 1: not shown heavy 2: not shown light: DIVMTQSPLSLPVTPGEPASISCQASESLVHSNRNTYLHWYLQKPGQSPQLLIYKVSNRFSGVPDRFSGSGSGTDFTLKISRVEAEDVGVYYCSQNTHVPPTFGQGTKVEIERTVAAPSVFIFPPSDEQLKSGTASVVCLLNNFYPREAKVQWKVDNALQSGNSQESVTEQDSKDSTYSLSSTLTLSKADYEKHKVYACEVTHQGLSSPVTKSFNRGEC
